# Source: patent US20230125550A1 (ARCELLX, published 2023)
# Target: T1, recombinant human CD123-Fc (human, UniProt P26951 19-305)
# T1 construct: not shown: Fc part of CD123-Fc
# T1 sequence: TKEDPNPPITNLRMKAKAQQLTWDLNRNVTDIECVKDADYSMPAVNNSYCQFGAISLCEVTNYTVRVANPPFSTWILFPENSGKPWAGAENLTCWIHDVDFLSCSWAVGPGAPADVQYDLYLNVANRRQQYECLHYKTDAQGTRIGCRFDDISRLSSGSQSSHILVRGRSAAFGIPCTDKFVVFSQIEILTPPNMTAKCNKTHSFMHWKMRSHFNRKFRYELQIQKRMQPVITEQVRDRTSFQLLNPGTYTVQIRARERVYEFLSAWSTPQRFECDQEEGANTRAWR
# Experiment: phage ELISA, captured CD123-Fc
# Outline: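 Phage from BCMA panning colonies were rescued with VCSM13 helper phage and diluted 5× in blocking buffer. Plates coated with anti-human IgG1-Fc captured 5 nM target-Fc or IgG1-Fc, and binding was detected with HRP anti-M13. Ratio = A450 target/A450 IgG1-Fc, averaged over the clone's wells.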
row,Binder,ELISA_avg [ratio A450 target/IgG1-Fc]
1,"SEQ ID NO: 542 (designed binder, D domain, on phage) MGSWEEFDQRLDAIDVRLYALGGSEAELAEFEFDIAAFEEWLQLYKGKGNPEVEALNMEAFAITDELCAYRHN",3.6
2,"SEQ ID NO: 572 (designed binder, D domain, on phage) MGSWAEFDSRLIAIFDRLWALGGSEAELAWFEDDIAQFEQHLQAYKGKGNPEVEALRQEADAITFELKAYRHN",3.6
3,"SEQ ID NO: 573 (designed binder, D domain, on phage) MGSWTEFEERLEAIWDRLYALGGSEAELAAFEWDIAYFEDGLQEYKGKGNPEVEALFMEAEAIIRELKAYRHN",5.9
4,"SEQ ID NO: 549 (designed binder, D domain, on phage) MGSWSEFDQRLEAIWNRLDALGGSEAELADFEREIAYFENQLQWYKGKGNPEVEALNNEAFAIVDELGAYRHN",3.4
5,"SEQ ID NO: 567 (designed binder, D domain, on phage) MGSWYEFWDRLTAIEHRLWALGGSEAELAYFEDSIAHFEGSLQVYKGKGNPEVEALYKEAEAIEWELEAYRHN",4.4
6,"SEQ ID NO: 540 (designed binder, D domain, on phage) MGSWYEFDDRLDAIAYRLNALGGSEAELAWFEWEIAEFELDLQWYKGKGNPEVEALVWEADAIEWELEAYRHN",4.6
7,"SEQ ID NO: 571 (designed binder, D domain, on phage) MGSWAEFDSRLDAIAQRLFALGGSEAELAHFEDFIAQFEYSLQEYKGKGNPEVEALSNEADAIFNELKAYRHN",3.6
8,"SEQ ID NO: 576 (designed binder, D domain, on phage) MGSWMEFEDRLIAIWARLDALGGSEAELAWFEADIADFEESLQEYKGKGNPEVEALIFEAIAINKELMAYRHN",3.7
9,"SEQ ID NO: 550 (designed binder, D domain, on phage) MGSWYEFDERLWAIWERLDALGGSEAELAHFEWVIADFENDLQWYKGKGNPEVEALEFEAEAIVTELHAYRHN",3.6
10,"SEQ ID NO: 541 (designed binder, D domain, on phage) MGSWFEFDERLDAIGSRLTALGGSEAELASFEFYIADFEEWLQQYKGKGNPEVEALEWEAFAIDEELGAYRHN",3.8
11,"SEQ ID NO: 557 (designed binder, D domain, on phage) MGSWEEFHERLDAIDERLEALGGSEAELAFFEDDIASFEDWLQWYKGKGNPEVEALSREADAINFELEAYRHN",4.3
12,"SEQ ID NO: 553 (designed binder, D domain, on phage) MGSWEEFYMRLVAIHMRLRALGGSEAELAVFENYIAEFEEYLQYYKGKGNPEVEALTIEADAIGTELGAYRHN",4.4
13,"SEQ ID NO: 562 (designed binder, D domain, on phage) MGSWYEFNMRLGAIDDRLQALGGSEAELAWFEDMIAIFEDDLQIYKGKGNPEVEALEQEAAAIHQELWAYRHN",3.8
14,"SEQ ID NO: 558 (designed binder, D domain, on phage) MGSWNEFYERLEAIDRRLFALGGSEAELALFEWMIADFEDDLQMYKGKGNPEVEALINEAGAIGFELEAYRHN",5.2
15,"SEQ ID NO: 545 (designed binder, D domain, on phage) MGSWYEFDHRLEAIYDRLWALGGSEAELAFFEFDIADFEWDLQSYKGKGNPEVEALFDEAAAIGHELLAYRHN",4.5
16,"SEQ ID NO: 560 (designed binder, D domain, on phage) MGSWVEFIMRLDAIYERLDALGGSEAELAEFEWHIADFEDHLQWYKGKGNPEVEALFEEADAIWEELWAYRHN",6.4
17,"SEQ ID NO: 566 (designed binder, D domain, on phage) MGSWSEFWFRLDAIEDRLWALGGSEAELAEFEDNIALFEYSLQHYKGKGNPEVEALVKEANAIDDELGAYRHN",4.5
18,"SEQ ID NO: 565 (designed binder, D domain, on phage) MGSWFEFDQRLDAITFRLWALGGSEAELAEFEDVIALFEYHLQDYKGKGNPEVEALEVEAWAIFHELGAYRHN",3.2
19,"SEQ ID NO: 546 (designed binder, D domain, on phage) MGSWNEFDDRLLAIWGRLDALGGSEAELAFFEEQIAGFEDELQWYKGKGNPEVEALDQEAEAIEKELWAYRHN",4.1
20,"SEQ ID NO: 577 (designed binder, D domain, on phage) MGSWFEFTIRLEAIQDRLDALGGSEAELAWFEWDIAEFEEGLQFYKGKGNPEVEALHTEADAIMNELVAYRHN",3.5
21,"SEQ ID NO: 578 (designed binder, D domain, on phage) MGSWYEFVSRLDAIEYRLWALGGSEAELAWFEWDIADFEQGLQFYKGKGNPEVEALAQEANAIGSELTAYRHN",3.2

row,Binder,ELISA_avg [ratio A450 target/IgG1-Fc]
1,"SEQ ID NO: 551 (designed binder, D domain, on phage) MGSWMEFDYRLEAIWMRLIALGGSEAELADFESSIADFEHHLQSYKGKGNPEVEALEWEAFAIGVELDAYRHN",3.1
2,"SEQ ID NO: 574 (designed binder, D domain, on phage) MGSWYEFEDRLAAIWDRLNALGGSEAELAIFEWDIAWFEEGLQEYKGKGNPEVEALKHEASAIQTELFAYRHN",6.4
3,"SEQ ID NO: 539 (designed binder, D domain, on phage) MGSWSEFDSRLDAIAYRLFALGGSEAELAQFEWIIADFEEDLQMYKGKGNPEVEALFSEAYAIEIELNAYRHN",4.3
4,"SEQ ID NO: 559 (designed binder, D domain, on phage) MGSWTEFTQRLEAIVDRLFALGGSEAELAEFENSIADFEWDLQWYKGKGNPEVEALNREAVAIDNELWAYRHN",3.9
5,"SEQ ID NO: 548 (designed binder, D domain, on phage) MGSWTEFDDRLFAIYWRLDALGGSEAELAWFEEVIAEFENDLQVYKGKGNPEVEALDDEAHAISIELEAYRHN",6.4
6,"SEQ ID NO: 544 (designed binder, D domain, on phage) MGSWEEFDKRLDAITRRLMALGGSEAELAEFESTIAWFEWDLQEYKGKGNPEVEALDWEAYAIDYELGAYRHN",4.5
7,"SEQ ID NO: 569 (designed binder, D domain, on phage) MGSWNEFVERLSAIDHRLWALGGSEAELADFEQQIAEFEIHLQEYKGKGNPEVEALDFEADAIFDELLAYRHN",3.2
8,"SEQ ID NO: 561 (designed binder, D domain, on phage) MGSWNEFLLRLDAIEHRLFALGGSEAELAEFEWEIADFEDDLQWYKGKGNPEVEALVEEAEAIDVELVAYRHN",3.2
9,"SEQ ID NO: 563 (designed binder, D domain, on phage) MGSWEEFHWRLGAIDARLEALGGSEAELAWFEDGIADFEAILQDYKGKGNPEVEALDSEAVAIHHELWAYRHN",3.3
10,"SEQ ID NO: 552 (designed binder, D domain, on phage) MGSWYEFESRLEAIWWRLEALGGSEAELAQFEQYIADFEQHLQWYKGKGNPEVEALDWEADAIWLELQAYRHN",4.4
11,"SEQ ID NO: 564 (designed binder, D domain, on phage) MGSWYEFYERLWAIDDRLWALGGSEAELAEFEDSIATFEPSLQMYKGKGNPEVEALVAEAWAIFDELAAYRHN",3.6
12,"SEQ ID NO: 568 (designed binder, D domain, on phage) MGSWYEFDDRLWAIFDRLFALGGSEAELAFFEDSIAEFEEELQHYKGKGNPEVEALYLEAWAIENELGAYRHN",4.7
13,"SEQ ID NO: 543 (designed binder, D domain, on phage) MGSWEEFDVRLDAIFNRLWALGGSEAELAEFEFDIAWFEMDLQEYKGKGNPEVEALFDEAEAITNELVAYRHN",4.7
14,"SEQ ID NO: 555 (designed binder, D domain, on phage) MGSWEEFDTRLLAIFGRLGALGGSEAELALFEMLIAKFEDDLQNYKGKGNPEVEALSEEAFAIDHELGAYRHN",6.7
15,"SEQ ID NO: 570 (designed binder, D domain, on phage) MGSWSEFVDRLDAIFDRLWALGGSEAELAWFEDTIAHFEWNLQEYKGKGNPEVEALNGEADAITDELHAYRHN",5.3
16,"SEQ ID NO: 575 (designed binder, D domain, on phage) MGSWLEFESRLWAIWDRLDALGGSEAELAHFEQDIADFEMSLQEYKGKGNPEVEALIREAEAIETELYAYRHN",3.4
17,"SEQ ID NO: 554 (designed binder, D domain, on phage) MGSWDEFYYRLVAITHRLHALGGSEAELAWFEDDIAGFEWDLQTYKGKGNPEVEALYKEAGAIGMELTAYRHN",5.4
18,"SEQ ID NO: 579 (designed binder, D domain, on phage) MGSWEEFDYRLYAIQDRLYALGGSEAELAFFEWEIADFEHMLQMYKGKGNPEVEALFQEADAIDAELHAYRHN",4.4
19,"SEQ ID NO: 556 (designed binder, D domain, on phage) MGSWREFDQRLWAIDWRLEALGGSEAELAMFEWMIATFEDDLQWYKGKGNPEVEALYREAFAIDWELDAYRHN",3.4
20,"SEQ ID NO: 580 (designed binder, D domain, on phage) MGSWIEFFHRLDAIQDRLDALGGSEAELAYFEWAIADFEHMLQLYKGKGNPEVEALQFEAFAIEGELYAYRHN",3.5
21,"SEQ ID NO: 547 (designed binder, D domain, on phage) MGSWVEFDDRLDAIWERLDALGGSEAELAWFEEQIAVFEHQLQDYKGKGNPEVEALNQEAEAIDLELKAYRHN",5
